Assay results from EP4725501A1 (Staidson (Beijing) Biopharmaceuticals Co., Ltd., dated 2026).

T1: human MASP3-His (human, UniProt P48740-2 20-728)
T1 sequence (looked up): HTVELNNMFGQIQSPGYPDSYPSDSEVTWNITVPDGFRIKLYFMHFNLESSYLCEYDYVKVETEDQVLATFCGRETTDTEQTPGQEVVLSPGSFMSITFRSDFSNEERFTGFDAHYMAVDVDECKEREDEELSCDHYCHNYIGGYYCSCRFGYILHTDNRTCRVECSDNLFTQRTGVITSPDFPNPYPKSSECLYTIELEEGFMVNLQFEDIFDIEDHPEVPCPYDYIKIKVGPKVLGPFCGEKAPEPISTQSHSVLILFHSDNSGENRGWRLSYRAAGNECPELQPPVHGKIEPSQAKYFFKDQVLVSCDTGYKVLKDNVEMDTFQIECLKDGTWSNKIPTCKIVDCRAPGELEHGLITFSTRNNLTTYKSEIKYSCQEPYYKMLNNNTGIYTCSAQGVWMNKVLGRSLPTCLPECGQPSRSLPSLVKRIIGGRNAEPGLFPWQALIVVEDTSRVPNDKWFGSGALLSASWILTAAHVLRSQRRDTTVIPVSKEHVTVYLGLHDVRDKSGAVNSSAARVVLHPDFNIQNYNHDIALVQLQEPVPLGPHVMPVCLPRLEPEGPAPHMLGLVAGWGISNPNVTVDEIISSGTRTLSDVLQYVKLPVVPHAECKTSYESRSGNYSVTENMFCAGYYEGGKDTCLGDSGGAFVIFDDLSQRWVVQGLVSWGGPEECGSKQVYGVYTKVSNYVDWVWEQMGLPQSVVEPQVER

T2: MASP3 in Factor D depleted human plasma (human, UniProt P48740-2 20-728)
T2 sequence (looked up): T1 sequence (looked up)

T3: mouse MASP3-His (mouse, UniProt P98064-2 25-733)
T3 construct: not shown: His tag added to the terminal
T3 sequence (looked up): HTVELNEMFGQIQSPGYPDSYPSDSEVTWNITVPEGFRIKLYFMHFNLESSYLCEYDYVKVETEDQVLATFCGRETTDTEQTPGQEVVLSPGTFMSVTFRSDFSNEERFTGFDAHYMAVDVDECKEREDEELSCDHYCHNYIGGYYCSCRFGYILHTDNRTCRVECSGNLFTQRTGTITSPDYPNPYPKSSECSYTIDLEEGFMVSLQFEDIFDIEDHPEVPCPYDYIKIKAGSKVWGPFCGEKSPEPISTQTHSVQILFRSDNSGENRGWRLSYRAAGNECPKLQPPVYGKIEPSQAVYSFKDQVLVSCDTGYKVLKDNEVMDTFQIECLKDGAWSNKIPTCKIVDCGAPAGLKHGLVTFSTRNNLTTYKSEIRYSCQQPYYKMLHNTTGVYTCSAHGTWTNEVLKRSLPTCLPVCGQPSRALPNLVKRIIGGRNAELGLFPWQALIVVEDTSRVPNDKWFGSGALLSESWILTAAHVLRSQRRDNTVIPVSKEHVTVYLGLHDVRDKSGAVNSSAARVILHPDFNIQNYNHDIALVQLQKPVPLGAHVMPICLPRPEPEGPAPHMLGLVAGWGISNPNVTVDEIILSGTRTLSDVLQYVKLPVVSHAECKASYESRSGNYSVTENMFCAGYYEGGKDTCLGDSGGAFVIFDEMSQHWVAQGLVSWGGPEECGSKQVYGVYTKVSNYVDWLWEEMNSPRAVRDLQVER

B1: M3-K1 (antibody, V domains shown)
VH: EVQLQQSGAELVKPGASVKISCKASGYTFTGKWIEWVKQRPGHGLEWIGEILPGSGSTDYNERFKDKATFTADTSSNTAYMQLTSLTPDDSATYYCVRSEDLWGSGTTLTVSS
VL: DVVMTQTPSSLAVSAGEKVTMSCKSSQSLLNSVTRKTYLAWYQQKPGQSPKLLIYWASTRESGVPDRFTGSGSGTDFTLTISSVQAEDLAIYYCKQSYTLPTFGGGTKLEIK
notes: also called anti-MASP3 chimeric antibody M3-K1
B2: M3-K2 (antibody, V domains shown)
VH: B1 VH
VL: DIVLTQSPSSLAVSAGEKVTMTCKSSQNLFNSRTRKNYLAWFQQKPGQSPKLLIYWASTRESGVPDRFTGSGSGTDFTLTISSVQAEDLAVYYCKQSYIPFTFGGGTKLEIK
notes: also called anti-MASP3 chimeric antibody M3-K2

Experiments:
human MASP3-His [1] = molecular target: T1, human MASP3-His; assay: cell-based or functional assay
[2] = molecular target: T2, MASP3 in Factor D depleted human plasma; assay: cell-based or functional assay
human MASP3-His [3] = molecular target: T1, human MASP3-His; assay: cell-based or functional assay; remark: listed apart in the source
human MASP3-His [4] = molecular target: T1, human MASP3-His; assay: ELISA; antigen coated 0.1 ug/well, antibody titrated, goat anti-human IgG-HRP
monkey MASP3-His = molecular target: T4, monkey MASP3-His (monkey); assay: as above
T4 construct: monkey species not further specified

mouse MASP3-His = molecular target: T3, mouse MASP3-His; assay: as above

| Binder | IC50 (nM), inhibition of MASP3 enzyme activity (cleavage of fluorescent tripeptide Boc-Val-Pro-Arg-AMC) (human MASP3-His [1]) | Inhibit hemolysis IC50 [2] | IC50 (nM), inhibition of MASP3 enzyme activity (fluorescent tripeptide cleavage) (human MASP3-His [3]) | EC50 (human MASP3-His [4]) | EC50 (monkey MASP3-His) | EC50 (mouse MASP3-His) |
| --- | --- | --- | --- | --- | --- | --- |
| B1 | 34 nM | 2.05 nM | 32.1 nM | 0.08 nM | 0.79 nM | 0.23 nM |
| B2 | 38.6 nM | 1.31 nM | 21.4 nM | 0.04 nM | 0.24 nM | 0.08 nM |
